Source: publication PMC11246235 (Cell, 2024)
Like-named read-outs stand apart in the source and are kept apart here. Values belong to the binder of their own block, whether it stands above or below them.

B1: Stn1 (natural protein, human, UniProt Q9H668 1-368, looked up)
chain: MQPGSSRCEEETPSLLWGLDPVFLAFAKLYIRDILDMKESRQVPGVFLYNGHPIKQVDVLGTVIGVRERDAFYSYGVDDSTGVINCICWKKLNTESVSAAPSAARELSLTSQLKKLQETIEQKTKIEIGDTIRVRGSIRTYREEREIHATTYYKVDDPVWNIQIARMLELPTIYRKVYDQPFHSSALEKEEALSNPGALDLPSLTSLLSEKAKEFLMENRVQSFYQQELEMVESLLSLANQPVIHSASSDQVNFKKDTTSKAIHSIFKNAIQLLQEKGLVFQKDDGFDNLYYVTREDKDLHRKIHRIIQQDCQKPNHMEKGCHFLHILACARLSIRPGLSEAVLQQVLELLEDQSDIVSTMEHYYTAF

Columns and labels:
Test in all cases: cryo-EM structure
Ctc1 (His6-MBP-Ctc1) [1] = molecular target: T1, Ctc1 (His6-MBP-Ctc1) (human, UniProt Q2NKJ3 1-1217)
T1 sequence (looked up): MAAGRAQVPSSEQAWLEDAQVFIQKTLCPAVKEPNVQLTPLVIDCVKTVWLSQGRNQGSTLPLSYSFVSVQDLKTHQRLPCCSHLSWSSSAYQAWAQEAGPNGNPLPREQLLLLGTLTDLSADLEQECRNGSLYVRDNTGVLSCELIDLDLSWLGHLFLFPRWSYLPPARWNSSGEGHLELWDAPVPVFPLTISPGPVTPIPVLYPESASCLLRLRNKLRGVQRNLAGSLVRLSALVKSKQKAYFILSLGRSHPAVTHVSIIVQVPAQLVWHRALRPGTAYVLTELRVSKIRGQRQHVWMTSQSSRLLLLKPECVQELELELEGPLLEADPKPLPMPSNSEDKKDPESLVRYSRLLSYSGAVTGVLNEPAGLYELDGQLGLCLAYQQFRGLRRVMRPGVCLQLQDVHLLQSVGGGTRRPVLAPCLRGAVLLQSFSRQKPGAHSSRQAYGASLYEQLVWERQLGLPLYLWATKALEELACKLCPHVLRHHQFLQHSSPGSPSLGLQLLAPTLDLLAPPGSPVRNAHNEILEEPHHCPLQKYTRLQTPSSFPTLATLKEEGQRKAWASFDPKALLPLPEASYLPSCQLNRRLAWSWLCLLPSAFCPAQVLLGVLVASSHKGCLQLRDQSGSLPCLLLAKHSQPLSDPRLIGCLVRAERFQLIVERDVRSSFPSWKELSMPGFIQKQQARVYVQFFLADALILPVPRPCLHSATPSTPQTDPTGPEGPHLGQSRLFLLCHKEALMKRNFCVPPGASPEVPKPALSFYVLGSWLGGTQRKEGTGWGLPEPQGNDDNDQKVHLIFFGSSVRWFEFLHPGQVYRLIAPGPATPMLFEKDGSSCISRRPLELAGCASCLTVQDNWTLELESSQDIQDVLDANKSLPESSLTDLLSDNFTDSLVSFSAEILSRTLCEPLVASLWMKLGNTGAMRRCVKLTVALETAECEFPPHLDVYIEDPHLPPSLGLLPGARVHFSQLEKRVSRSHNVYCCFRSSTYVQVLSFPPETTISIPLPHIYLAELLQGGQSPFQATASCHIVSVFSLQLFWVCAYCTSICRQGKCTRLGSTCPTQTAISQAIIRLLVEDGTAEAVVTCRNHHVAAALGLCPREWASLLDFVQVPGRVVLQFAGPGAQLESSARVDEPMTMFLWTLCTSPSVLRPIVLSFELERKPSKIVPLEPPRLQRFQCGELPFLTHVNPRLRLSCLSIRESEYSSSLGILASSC

Ctc1 (His6-MBP-Ctc1) [2] = molecular target: T1, Ctc1 (His6-MBP-Ctc1); remark: listed apart in the source
Stn1 = molecular target: B1

Binder: B1
- binding result (Ctc1 (His6-MBP-Ctc1) [1]): binds

- binding result (Ctc1 (His6-MBP-Ctc1) [2]): binds
B2: POT1(ESDL) (natural protein, human, UniProt Q9NUX5 1-634, looked up)
chain: MSLVPATNYIYTPLNQLKGGTIVNVYGVVKFFKPPYLSKGTDYCSVVTIVDQTNVKLTCLLFSGNYEALPIIYKNGDIVRFHRLKIQVYKKETQGITSSGFASLTFEGTLGAPIIPRTSSKYFNFTTEDHKMVEALRVWASTHMSPSWTLLKLCDVQPMQYFDLTCQLLGKAEVDGASFLLKVWDGTRTPFPSWRVLIQDLVLEGDLSHIHRLQNLTIDILVYDNHVHVARSLKVGSFLRIYSLHTKLQSMNSENQTMLSLEFHLHGGTSYGRGIRVLPESNSDVDQLKKDLESANLTANQHSDVICQSEPDDSFPSSGSESDLVSLYEVERCQQLSATILTDHQYLERTPLCAILKQKAPQQYRIRAKLRSYKPRRLFQSVKLHCPKCHLLQEVPHEGDLDIIFQDGATKTPDVKLQNTSLYDSKIWTTKNQKGRKVAVHFVKNNGILPLSNECLLLIEGGTLSEICKLSNKFNSVIPVRSGHEDLELLDLSAPFLIQGTIHHYGCKQCSSLRSIQNLNSLVDKTSWIPSSVAEALGIVPLQYVFVMTFTLDDGTGVLEAYLMDSDKFFQIPASEVLMDDDLQKSVDMIMDMFCPPGIKIDAYPWLECFIKSYNVTNGTDNQICYQIFDTTVAEDVI
modifications: phosphorylated in insect cells (sites not determined)

- binding result (Stn1): binds
B3: Ten1 (natural protein, human, UniProt Q86WV5 1-123, looked up)
chain: MMLPKPGTYYLPWEVSAGQVPDGSTLRTFGRLCLYDMIQSRVTLMAQHGSDQHQVLVCTKLVEPFHAQVGSLYIVLGELQHQQDRGSVVKARVLTCVEGMNLPLLEQAIREQRLYKQERGGSQ
